Laboratory results published in paper PMC12604968, “Mutant NPM1 modulates PDCD4 ubiquitination degradation and facilitates leukemogenesis” (iScience, 2025).
Ends that are not written are not given here. * marks the point of attachment. Biotin = O=C1N[C@H]2[C@H](CS[C@H]2CCCCC(=O)*)N1

T1: GST-PDCD4 recombinant protein (human, UniProt Q53EL6 1-469)
T1 construct: PDCD4 (programmed cell death 4), human, amplified from cDNA of HEK293T cells and cloned into pGEX-6P-1; pGEX-6P-1 is known to add GST at the N-terminus; also called GST-tagged PDCD4; source: E. coli BL21 (DE3), purified (Glutathione Sepharose 4FF)
T1 sequence (looked up): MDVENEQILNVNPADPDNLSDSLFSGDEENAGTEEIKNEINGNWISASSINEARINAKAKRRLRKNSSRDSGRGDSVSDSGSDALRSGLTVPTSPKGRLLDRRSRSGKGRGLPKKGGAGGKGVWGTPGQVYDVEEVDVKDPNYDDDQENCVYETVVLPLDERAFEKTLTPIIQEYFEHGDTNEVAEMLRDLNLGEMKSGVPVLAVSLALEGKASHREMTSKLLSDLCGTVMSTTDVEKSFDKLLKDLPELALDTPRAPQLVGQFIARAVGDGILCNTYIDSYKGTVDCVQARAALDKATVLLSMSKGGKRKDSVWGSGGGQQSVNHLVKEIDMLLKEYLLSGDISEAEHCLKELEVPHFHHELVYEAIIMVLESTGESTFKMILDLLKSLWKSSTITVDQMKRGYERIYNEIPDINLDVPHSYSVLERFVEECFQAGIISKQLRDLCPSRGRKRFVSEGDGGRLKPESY

B1: His-tagged NPM1 N-terminal domain (NPM1-NT, aa 1-117) (domain or fragment, human, UniProt P06748 1-117, looked up)
chain: MEDSMDMDMSPLRPQNYLFGCELKADKDYHFKVDNDENEHQLSLRTVSLGAGAKDELHIVEAEAMNYEGSPIKVTLATLKMSVQPTVSLGGFEITPPVVLRLKCGSGPVHISGQHLV
notes: source: E. coli BL21 (DE3), purified (Ni-NTA)
B2: Biotin-PDCD4-NoLS peptide (peptide)
peptide: Biotin-EARINAKAKRRLRKNSSRDSGRG
notes: PDCD4, human, nucleolar localization signal (NoLS); also called biotinylated PDCD4-NoLS peptides; biotin-tagged PDCD4-NoLS peptide; source: synthetic peptide, bought: GL Biochem; not shown: biotin, N-terminal, kept

Legend:
[1] = molecular target: T1, GST-PDCD4 recombinant protein; experiment: pull-down; GST-PDCD4 immobilised on Glutathione Sepharose 4FF beads, incubated with purified His-tagged proteins; SDS-PAGE, Coomassie blue; details: both partners purified
[2] = molecular target: B1; experiment: pull-down; biotinylated PDCD4-NoLS peptide immobilised on streptavidin beads, incubated with purified NPM1 fragment proteins; details: both partners purified

B1
binding result [1]: binds

B2
binding result [2]: binds
